This passage reports Kd and uptake of AGuIX@PS@KDKPPR nanoparticles (1 µM, 4 h or 24 h, 37 °C) by M0, M1 and M2 macrophages, porphyrin fluorescence of the cell lysate; control: AGuIX@PS@scramble, 24 h (fold (M0 and M2 against M1, 24 h)) results from PMC10057379.

Where no end group is shown, it is not given here.

The term Kd denotes the concentration at which binding is half-saturated.

One experiment concerns the target NRP-1 (Homo sapiens) (UniProt O14786). Put plainly: SPR. The conditions noted are these: cited from earlier work.
Experiment [1] addresses Neuropilin-1 (NRP-1) (human (endogenous in THP-1)) (UniProt O14786).

In the case of KDKPPR peptide, the Kd with NRP-1 (Homo sapiens) was 4.7 µM.

B1: KDKPPR ligand peptide on AGuIX@PS@KDKPPR nanoparticles (peptide)
peptide: KDKPPR
modifications: also: grafted onto AGuIX nanoparticles with porphyrin and gadolinium
With B1, the uptake of AGuIX@PS@KDKPPR nanoparticles (1 µM, 4 h or 24 h, 37 °C) by M0, M1 and M2 macrophages, porphyrin fluorescence of the cell lysate; control: AGuIX@PS@scramble, 24 h (fold (M0 and M2 against M1, 24 h)) in experiment [1] came out at 3.
